Assay results as given in patent publication US10889844B2, “Methods of degrading or hydrolyzing a polysaccharide” (Novozymes A/S, priority 2010, dated 2021).

Assays:
[1] = Filter paper cellulose degradation by […] with E7 (FIG. 28); assay type: biochemical; settings: 2 mM reduced glutathione
Method: 1 μM of the N-terminal CBM33 domain of CelS2 was incubated with 10 mg/ml AVICEL® in the presence of 0.8 mM of one of the reductants, or in the absence of any reductant. Reactions were run in 50 mM succinate buffer pH 5.5, 1 mM MgCl2, at 50° C. and 900 rpm (vertical agitation) for 20 hours. […] (glucose and cellobiose reported as [Glc]) released after incubation of 0.08 μl/ml […]™ (CC) in the presence or absence of 1 μM E7 and 2 mM reduced glutathione (RG) as external electron donor with 2 mg/ml filter paper cellulose. Reactions were incubated in 20 mM sodium acetate buffer pH 5.5, 1 mM MgCl2, at 50° C. and 900 rpm (horizontal agitation) for up to 50 hours.

[2] = Filter paper degradation by HjCel7A with CelS2 over time (FIG. 26); assay type: biochemical; settings: no CelS2 present
Method: By far the major products of these reactions are cellooligosaccharides released by the cellulases (whose activity is boosted by CelS2). In the case of HjCel7A, the main product is cellobiose and formation of this product is shown. RG, indicates the presence of a reductant, in this case reduced glutathione. […] The reactions were run at 50° C.

[3] = Time course of filter paper cellulose degradation by […] with CelS2 (FIG. 25); assay type: biochemical
Method: In reactions where no CelS2 was present, 40 μg/ml purified BSA was added in order to maintain an identical protein load. […] Data are mean+/−SD (N=3); error bars indicate SD.

[4] = system: CBP21 (Serratia marcescens); assay type: biochemical; settings: CBP21 alone on beta-chitin with reductant; 10 mM sodium dithionite anaerobic or 2.0 mM potassium cyanide
CBP21 [5] = target: T1, CBP21 (Serratia marcescens, UniProt P9WEM3); assay type: biochemical
CBP21 [6] = target: T1, CBP21; test: Reactions under metal chelating conditions: re-activation of metal-free CBP21; assay type: biochemical
Method: Solid lines indicate reactions with metal-free CBP21; dashed lines indicate reactions without CBP21. Half way through the reaction (indicated by the arrow) MgCl2 (final concentration 25 mM), ZnCl2 (25 mM) or buffer was added to one of two (parallel) reaction mixtures. Squares, MgCl2 added; circles, ZnCl2 added; triangles, buffer added.
Divalent cations were removed by chelation through dialysis of a 10 mg/mL CBP21 solution in a buffer containing 20 mM Tris-HCl and 5 mM EDTA. The protein solution was present in a Slide-A-Lyzer cassette (Pierce) with 10 kDa MW cut-off dialysis membrane. […] For the re-activation experiment, the divalent cations were added to the appropriate reaction solutions immediately after the third sampling (90 minutes).

Cellic™ CTec2 = test: Effect of ascorbic acid on glucose release from cellulose by Cellic CTec2 (FIG. 35); assay type: biochemical; settings: 0.5 mM ascorbic acid, 24 hours
[7] = Cleavage of AVICEL by GH61 proteins in the presence of ascorbic acid (HPAEC, FIG. 34); assay type: biochemical; settings: 140 μg/ml GH61 protein, 10 mg/ml AVICEL, 2.4 mM ascorbic acid, pH 6.6, 24 hours
Source text: The two proteins were cloned and produced as described in Harris et al., 2010, supra. […] While the product pattern is similar to that obtained with CBM33s, it is not identical. The patterns typically obtained with CBM33s acting on cellulose in the presence of reductants (FIGS. 19, 22, 27, 30, and 31) show different peridiodicities (i.e., relative abundances of the various products, both oxidized and native oligosaccharides). This may indicate that TtGH61E acts on the substrate in a slightly different way, e.g., by attacking another face of the crystal. Clearly, however, the overall outcome of the reaction of TtGH61E in the presence of the reductant is similar to the outcome of reactions of CBM33s on cellulose in the presence of reductant.

[8] = 0.1 mg/mL beta-chitin, 0.5 μM ChiC, 1.0 mM ascorbic acid, pH 8.0
Method: CBP21-like and GH61 proteins contain two highly conserved histidines (H28 and H114 in CBP21), one of which is the N-terminal histidine of the secreted mature protein.
Isocratic HPLC was run on a Dionex Ultimate 3000 HPLC system set up with a 4.6×250 mm Amide-80 column (Tosoh Bioscience, Montgomeryville, Pa., USA) with an Amide-80 guard column. The mobile phase consisted of 70% acetonitrile: 30% MilliQ H2O and the flow rate was 0.7 ml/min. Eluted oligosaccharides were monitored by recording absorption at 190 nm. Chromatograms were recorded, integrated and analysed using the Chromeleon 6.8 chromatography software (Dionex). […] A standard solution containing 0.10 mM (GlcNAc)2 was analyzed at regular intervals during the sample series, and the resulting average values (displaying standard deviations of less than 3%) were used for calibration.
For the sake of experimental simplicity and throughput, the degradation of chitin in reactions with ChiC and CBP21 was quantitatively assessed by measuring concentration of the dominant product, (GlcNAc)2, only.
The reaction was incubated at 37° C. and sampled at regular time intervals. Chitin degradation was measured by determining the concentration of (GlcNAc)2 by HPLC.

[9] = CBP21 reaction speed and degree of substrate oxidation (UHPLC of oxidized chitooligosaccharides); assay type: biochemical
Method: FIGS. 16A and 16B show the speed and extent of oxidative cleavage by CBP21 activity. […] After five hours, approximately 4.9% of the total sugars (theoretical number based on chitin concentration) are oxidized*. […] The degree of oxidation was determined by rapid conversion of the treated chitin with a large dose of a chitinase cocktail followed by UHPLC detection of oxidized dimers (filled diamonds) and trimers (filled triangles), as described in the Materials and Methods section. The linear part of the reaction represents an oxidation rate of approximately 1 per minute**. Maximum levels are reached after 2-3 hours and represent a degree of oxidation of 7.6% of the total sugars (theoretical number based on chitin concentration)***. Data in both panels are mean+/−SD (N=3); error bars (not visible for every point) indicate SD.
*The end concentrations of oxidized trimer and tetramer are 53 and 55 μM, respectively, giving rise to a total of 108 μM GlcNAcA. The molar concentration of GlcNAc in the solution is 2217 μM. Thus the degree of oxidation is 108/2217; in other words 4.9% of the sugars are GlcNAcA. **The rates calculated for oxidized dimer and oxidized trimer are 0.68 and 0.60 μM/min. […] The molar concentration of GlcNAc in the solution is 2217 μM. Thus the degree of oxidation is 168/2217; in other words 7.6% of the sugars are GlcNAcA.
Fractions were dried under vaccum (SpeedyVac), and resuspended in 50 μL MilliQ water. Purity was verified by MALDI-TOF MS. Isolated GlcNAc3GlcNAcA or GlcNAc4GlcNAcA were each incubated for 2 hours at 37° C. with 7.0 μM of a pure recombinant family 19 chitinase (ChiG from Streptomyces coelicolor (Hoell et al., 2006, FEBS J. 273: 4889)) resulting in production of equimolar amounts of GlcNAc2 and GlcNAcGlcNAcA or GlcNAc2GlcNAcA, respectively. The amount of GlcNAc2 resulting from the hydrolysis was estimated using a predetermined standard curve. Response factors for the GlcNAcA containing oligosaccharides were obtained by determining GlcNAcGlcNAcA/GlcNAc2 and GlcNAc2GlcNAcA/GlcNAc2 peak area ratios and found to be 0.71 and 0.81, respectively. A response factor for GlcNAc3GlcNAcA was approximated to be 0.88 by extrapolation of the two experimentally determined response factors. Using the response factors determined, GlcNAcGlcNAcA and GlcNAc2GlcNAcA peaks could be quantified using GlcNAc2 for calibration. […] Additionally, the reactions contained 0.45 mg/mL beta-chitin, 1.0 μM CBP21 and 0.5 ChiC μM in 20 mM Tris-HCl pH 8.0.
The reactions were incubated at 37° C. in an Eppendorf Thermo mixer with shaking at 1000 rpm, and sampled at 30, 60, 120 and 300 minutes. All samples were mixed 1:1 with 100% acetonitrile in order to stop the reaction and soluble products were analyzed by UHPLC. Separation of the oxidized oligosaccharides and GlcNAc2 was achieved using a column temperature of 30° C. and a flow of 0.4 mL/min, with a gradient starting at 80% ACN (A):20% 15 mM Tris-HCl pH 8.0 (B) for 4.5 minutes, followed by an 11 minute gradient to 63% A: 37% B which was held for 3.5 minutes. Column reconditioning was achieved by a two minute gradient to initial conditions and subsequent running at initial conditions for 5 minutes. Eluted oligosaccharides were monitored by recording absorption at 205 nm. Chromatograms were recorded, integrated and analysed using the ChemStation rev. B.04.02 chromatography software (Agilent Technologies).
In order to approximate the rate of the CBP21 oxidohydrolytic activity, reactions containing 0.45 mg/mL beta-chitin, 1.0 μM CBP21 and 1.0 mM reduced glutathione in 20 mM Tris-HCl pH 8.0 were incubated at 37° C. and sampled at 10, 15, 30,45, 60 and 300 minutes. […]

[10] = Chitin solubilization by CBP21: soluble oxidized products (MALDI-TOF MS, UHPLC); assay type: biochemical; settings: 2.0 mg/mL beta-chitin, 1.0 mM ascorbic acid, 20 mM Tris pH 8.0, 37° C.
Method: Two microliter of a 9 mg/mL mixture of 2,5-dihydroxybenzoic acid (DHB) in 30% acetonitrile was applied to a MTP 384 target plate ground steel TF (Bruker Daltonics). One microliter sample was then mixed into the DHB droplet and dried under a stream of air. The samples were analyzed with an Ultraflex MALDI-TOF/TOF instrument (Bruker Daltonics GmbH, Bremen, Germany) with a Nitrogen 337 nm laser beam. The instrument was operated in positive acquisition mode and controlled by the FlexControl 3.3 software package. All spectra were obtained using the reflectron mode with an acceleration voltage of 25 kV, a reflector voltage of 26, and pulsed ion extraction of 40 ns in the positive ion mode. The acquisition range used was from m/z 0 to 7000. […] Post-source decay (PSD) spectra using the Bruker Daltonics LIFT system were recorded at 8 kV precursor ion acceleration voltage and fragment acceleration (LIFT voltage 19 kV). […]
UHPLC was run on an Agilent 1290 Infinity UHPLC system equipped with diode array detector, set up with a Waters Acquity UPLC BEH amide column (2.1×150 mm with a 2.1×30 mm pre column both having a column material particle size of 1.7 μm) using 5 μL sample injections. […] Eluted oligosaccharides were monitored by recording absorption at 205 nm. Chromatograms were recorded, integrated and analysed using the ChemStation rev. […]

[11] = 1.0 μM CBP21 alone, 0.45 mg/mL beta-chitin

N[C@@H](CCC(=O)N[C@@H](CS)C(=O)NCC(=O)O)C(=O)O [reduced glutathione, reference compound]
effect of reductant in reactions with only CC [1]: no effect in reactions with only CC | effect of reductant on Cel7A alone [2]: essentially identical | effect of reductant in reactions with only CC ([3]; 0.5 mM reduced glutathione): no effect in reactions with only CC

O=S([O-])S(=O)[O-].[Na+].[Na+] [sodium dithionite, Sodium dithionite]
effect on CBP21 generated oxidized products [4]: no detectable amounts of CBP21 generated products | effect on the potentiating effect of CBP21 on ChiC (CBP21 [5]): abolished

[Cl-].[Cl-].[Mg+2] [MgCl2]
re-activation of metal-free CBP21 (CBP21 [6]): Re-activation of metal-free CBP21 was achieved

[Cl-].[Cl-].[Zn+2] [ZnCl2]
re-activation of metal-free CBP21 (CBP21 [6]): Re-activation of metal-free CBP21 was achieved

O=C1O[C@H]([C@@H](O)CO)C(O)=C1O [ascorbic acid]
increase of the release of glucose (Cellic™ CTec2; AVICEL®): about 30% | increase of the release of glucose (Cellic™ CTec2; Filter Paper): about 30%

B1: TaGH61A: GH61 protein (SEQ ID NO: 2), GH61A from T. aurantiacus (protein)
chain: MSFSKIIATAGVLASASLVAGHGFVQNIVIDGKKYYGGYLVNQYPYMSNPPEVIAWSTTATDLGFVDGTGYQTPDIICHRGAKPGALTAPVSPGGTVELQWTPWPDSHHGPVINYLAPCNGDCSTVDKTQLEFFKIAESGLINDDNPPGIWASDNLIAANNSWTVTIPTTIAPGNYVLRHEIIALHSAQNQDGAQNYPQCINLQVTGGGSDNPAGTLGTALYHDTDPGILINIYQKLSSYIIPGPPLYTG
modifications: T. aurantiacus
cleavage of cellulose, oxidized products [7]: much less active than TtGH61E

B2: CBP21: chitin-binding protein of Serratia marcescens, single-domain CBM33 protein (SEQ ID NO: 4) (protein, listed as Serratia marescens)
chain: MNKTSRTLLSLGLLSAAMFGVSQQANAHGYVESPASRAYQCKLQLNTQCGSVQYEPQSVEGLKGFPQAGPADGHIASADKSTFFELDQQTPTRWNKLNLKTGPNSFTWKLTARHSTTSWRYFITKPNWDASQPLTRASFDLTPFCQFNDGGAIPAAQVTHQCNIPADRSGSHVILAVWDIADTANAFYQAIDVNLSK
potentiating effect on chitinase (ChiC) efficiency [8]: promotes chitin degradation by ChiC considerably better in the presence of ascorbic acid | rate calculated for oxidized dimer [9, 11]: 0.68 µM/min | rate calculated for oxidized trimer [9, 11]: 0.60 µM/min | rate of oxidized products generated (dimer + trimer) [9, 11]: 1.28 µM/min | end concentration of oxidized tetramer ([9]; CBP21 + ChiC, five hours): 55 µM | end concentration of oxidized trimer ([9]; CBP21 + ChiC, five hours): 53 µM | total GlcNAcA ([9]; CBP21 + ChiC, five hours): 108 µM | oxidized dimer produced at maximum levels ([9]; CBP21 alone): 93 µM | oxidized trimer produced at maximum levels ([9]; CBP21 alone): 75 µM | time at which maximum levels of oxidized sugars are reached ([9]; CBP21 alone): 2 to 3 h | total GlcNAcA at maximum levels ([9]; CBP21 alone): 168 µM | production of soluble oxidized oligosaccharides from beta-chitin [10]: soluble products are dominated by even numbered short oligosaccharides with acidic reducing ends | effect on CELLUCLAST (CC) production of soluble glucose over time ([3]; 10 mg/ml filter paper, 0.8 μg/ml CC, pH 5.5): did not affect CC efficiency

B3: TtGH61E: GH61 protein from Thielavia terrestris (SEQ ID NO: 1) (protein)
chain: MLANGAIVFLAAALGVSGHYTWPRVNDGADWQQVRKADNWQDNGYVGDVTSPQIRCFQATPSPAPSVLNTTAGSTVTYWANPDVYHPGPVQFYMARVPDGEDINSWNGDGAVWFKVYEDHPTFGAQLTWPSTGKSSFAVPIPPCIKSGYYLLRAEQIGLHVAQSVGGAQFYISCAQLSVTGGGSTEPPNKVAFPGAYSATDPGILINIYYPVPTSYQNPGPAVFSCMLANGAIVFLAAALGVSGHYTWPRVNDGADWQQVRKADNWQDNGYVGDVTSPQIRCFQATPSPAPSVLNTTAGSTVTYWANPDVYHPGPVQFYMARVPDGEDINSWNGDGAVWFKVYEDHPTFGAQLTWPSTGKSSFAVPIPPCIKSGYYLLRAEQIGLHVAQSVGGAQFYISCAQLSVTGGGSTEPPNKVAFPGAYSATDPGILINIYYPVPTSYQNPGPAVFSC
modifications: T. terrestris
cleavage of cellulose, oxidized products [7]: cuts cellulose producing oxidized and native celluoligosaccharides
